What was measured:
[1] = biological target: T1, human CEACAM6, full-length, on cells (human, UniProt P40199 35-320); assay: FACS, T84 cells (endogenous CEACAM6)
T1 construct: used both for transfected HeLa cells and for tumor cell lines that express CEACAM6 endogenously; also called TPP-4639; HeLa human CEACAM6
T1 sequence: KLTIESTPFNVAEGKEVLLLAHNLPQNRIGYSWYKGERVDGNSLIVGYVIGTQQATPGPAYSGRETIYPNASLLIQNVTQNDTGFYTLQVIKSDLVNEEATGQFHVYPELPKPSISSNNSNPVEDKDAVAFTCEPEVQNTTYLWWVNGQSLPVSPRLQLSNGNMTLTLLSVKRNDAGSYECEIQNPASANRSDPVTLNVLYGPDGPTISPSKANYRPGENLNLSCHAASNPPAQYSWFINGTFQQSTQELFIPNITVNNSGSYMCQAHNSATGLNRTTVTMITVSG
Method: (§1) For FACS experiments HeLa wild type cells were cultured in RPMI-1640, 10% FCS, while CEACAM-receptor transfected HeLa cells received in addition 0.5% Gentamycin (stock 10 mg/ml, Fa. PAA) and 200 μg/ml Hygromycin B (stock 50 mg/ml, Invitrogen). Cells were washed 3 times with PBS w/o Ca²⁺/Mg²⁺ and were detached from the culture plate non-enzymatically with EDTA dissociation buffer (Gibco). Cells were washed in cold FACS buffer (PBS w/o Ca²⁺/Mg²⁺ and heat-inactivated 3% FCS) and were counted using a countess machine (Invitrogen). 10⁵ cells per well were plated and incubated with the respective primary antibody (5 μg/ml) for 1 h at 4° C. on a plate shaker. […] After 2 times washing the cells were resuspended in 100 μl FACS buffer and were analysed on a FACS Canto II machine (Beckton Dickinson) or a FACS Array (Beckton Dickinson).
(§2) For EC₅₀ analysis, the primary antibodies were used at increasing concentrations in a range from 0.1 nM to 100 nM. Half maximal binding values (EC₅₀) were determined by plotting the median fluorescence intensity signal against the concentration (logarithmic scale). Curve fitting of data was performed using the Graph Pad prism analysis software.
(§3) Anti-CEACAM6 antibodies were also tested for their binding to different cancer cell lines that endogenously express CEACAM6 by FACS analysis. […]

[2] = biological target: T1, human CEACAM6, full-length, on cells; assay: FACS, KS cells (endogenous CEACAM6)
[3] = biological target: T1, human CEACAM6, full-length, on cells; assay: FACS, SNU-C1 cells (endogenous CEACAM6)
Method: as §1, §2, §3

[4] = biological target: T1, human CEACAM6, full-length, on cells; assay: FACS, PaTu-8902 cells (endogenous CEACAM6)
Method: as §1, §2, §3

[5] = biological target: T1, human CEACAM6, full-length, on cells; assay: FACS, NCI-H1993 cells (endogenous CEACAM6)
Method: as §1, §2, §3

B1: TPP-3310 (antibody, human IgG2, kappa)
heavy: QVTLRESGPALVKPTQTLTLTCTFSGFSLSTYGIGVGWIRQPPGKALEWLAHIWWNDNKYYSTSLKTRLTISKDTSKNQVVLTMTNMDPVDTATYYCARISLPYFDYWGQGTTLTVSSASTKGPSVFPLAPCSRSTSESTAALGCLVKDYFPEPVTVSWNSGALTSGVHTFPAVLQSSGLYSLSSVVTVPSSNFGTQTYTCNVDHKPSNTKVDKTVERKCCVECPPCPAPPVAGPSVFLFPPKPKDTLMISRTPEVTCVVVDVSHEDPEVQFNWYVDGVEVHNAKTKPREEQFNSTFRVVSVLTVVHQDWLNGKEYKCKVSNKGLPAPIEKTISKTKGQPREPQVYTLPPSREEMTKNQVSLTCLVKGFYPSDIAVEWESNGQPENNYKTTPPMLDSDGSFFLYSKLTVDKSRWQQGNVFSCSVMHEALHNHYTQKSLSLSPG
light: DIQLTQSPSFLSASVGDRVTITCKASQNVGTAVAWYQQKPGKAPKLLIYSASNRYTGVPSRFSGSGSGTEFTLTISSLQPEDFATYYCQQYSSYPLTFGGGTKVEIKRTVAAPSVFIFPPSDEQLKSGTASVVCLLNNFYPREAKVQWKVDNALQSGNSQESVTEQDSKDSTYSLSSTLTLSKADYEKHKVYACEVTHQGLSSPVTKSFNRGEC
notes: humanized from TPP-2971, human IgG2; also called TPP-2971HU1-hIgG2Kappa
[1]
  EC50: 300 pM
[2]
  EC50: 800 pM
[3]
  EC50: 500 pM
[4]
  EC50: 150 pM
[5]
  EC50: 800 to 1600 pM

Source: US20200181261A1 (Bayer, published 2020)
